Assay results taken from paper PMC10661118.

What was measured:
[1] = IRBP-SEAP reporter in HeLa, normalised to EV; settings: glycan lost; control: WT OTX2, untreated
[2] = DSP crosslink, soluble vs pellet fractions, WB, HeLa; settings: control: DMSO vehicle

Substance	other: transcriptional activity [1]	other: solubility (aggregation) ([2]; glycan lost)	other: solubility (aggregation) ([2]; glycan gained)
OTX2: OSMI4	no change	decreases	–
OTX2: Thiamet-G	–	–	increases
